The text below walks through data of patent US20210353740A1.

“And” between values parts separate entries of the source, which are not always exact repeats. Equal entries are not always repeated.

In assay [1] the target is FP-rTT monomer (HIV-1 Env fusion peptides conjugated to monomeric rTT) (HIV-1). In words: isothermal titration calorimetry (ITC), Fab against conjugate.
Assay [2] concerns the target LS-Spy-rTT-FP8v1/PEG2 nanoparticle carrier (HIV-1). The assay is described as above.

For the substance VRC34.01 Fab, the competent Fab binding sites per entity (ITC stoichiometry) (binding sites per FP-rTT monomer) in assay [1] came to 6. In addition, the competent Fab binding sites per entity (ITC stoichiometry) (binding sites per nanoparticle carrier) in assay [2] is 152 and 402.
